The values below are quoted from earlier work in paper PMC8348223.

One series concerns the target Bcl-XL (UniProt Q07817).
In a further series the target is Bax (UniProt Q07812).
Bax, sequence (Q07812 whole entry): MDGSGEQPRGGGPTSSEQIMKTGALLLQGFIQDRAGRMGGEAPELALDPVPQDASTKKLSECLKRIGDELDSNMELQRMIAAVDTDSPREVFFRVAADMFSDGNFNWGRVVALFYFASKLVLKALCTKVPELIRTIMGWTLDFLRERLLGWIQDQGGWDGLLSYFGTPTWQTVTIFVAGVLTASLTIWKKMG

tBid, sequence (P55957 61-195): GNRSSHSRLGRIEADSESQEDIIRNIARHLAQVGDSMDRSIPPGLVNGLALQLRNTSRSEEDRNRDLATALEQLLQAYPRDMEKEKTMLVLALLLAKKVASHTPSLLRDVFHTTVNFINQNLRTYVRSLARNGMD
Bcl-XL, sequence (Q07817 whole entry): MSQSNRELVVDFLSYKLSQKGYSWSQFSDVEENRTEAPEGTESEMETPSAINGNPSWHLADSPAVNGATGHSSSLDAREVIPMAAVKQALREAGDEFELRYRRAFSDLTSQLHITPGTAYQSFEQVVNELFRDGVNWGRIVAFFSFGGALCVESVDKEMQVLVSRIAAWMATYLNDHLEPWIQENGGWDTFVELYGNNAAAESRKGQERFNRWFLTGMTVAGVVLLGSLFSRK

What is called Kd is the free concentration of one partner at which half of the binding sites on the other are occupied at equilibrium, for simple one-to-one binding. As for tBid (from UniProt P55957), the values for the Kd with Bcl-XL and in the series with Bax were 1 nM and 20 nM, respectively.
